This is an account of results in US20240003906A1, “Biomarker of Fibrosis” (Nordic Bioscience A/S, priority 2020, published 2024).

Where no end group is shown, it is not given here.

Assay [1] has as its target T1, dimeric elongated peptide (CKAGGFAPYYGD×CKAGGFAPYYGD (SEQ ID NO: 17)) (Homo sapiens, UniProt P02461).
T1 construct: purchased Genscript, Piscataway, NJ, USA; host or cells: synthetic peptide
The experiment in a line: Direct sandwich ELISA specificity towards dimeric peptides. The assay is classed as binding. To be noted: NBH-242 as capture and detection antibody, FIG. 3. The method, then: (§1) 96-well plates precoated with streptavidin (Roche Diagnostic's, Hvidovre, Denmark, cat. No. 11940279) were coated with 100 μL of the biotinylated antibody targeting the CTX-III fragment diluted 1+100 in assay buffer (50 mM PBS, 1% BSA, 1% Tween-20, 150 mM NaCl, pH 7.4) for 30 minutes at room temperature rotating at 300 rounds-per-minute (rpm). Unbound biotinylated capture antibody was discarded, and the wells were washed with washing buffer (25 mM TRIZMA, 50 mM NaCl, 0.036% Bronidox L5, 0.1% Tween 20) using a standardized ELISA plate washing machine (BioTek® Instruments, Microplate washer, ELx405 Select CW, Winooski, USA). All samples and the detection antibody were diluted in incubation buffer (50 mM PBS, 1% BSA, 1% Tween-20, 150 mM NaCl, 5% Liquid II, pH 7.4), with the detection antibody being diluted 1+100. 20 μL of sample material and controls were incubated with 100 μL HRP labelled detection antibody targeting the CTX-III fragment, at 4° C. for 20 hours and agitated at 300 rpm. […] Finally, the luminescence emitted was quantified with an ELISA reader (VersaMAX; Molecular Devices, Wokingham Berkshire, UK) set to measure the luminescence at 450 nm and 650 nm. […]
(§2) The lower limit of detection (LLOD) was determined from 21 zero samples (i.e. incubation buffer) and calculated as the mean+3× standard deviation, whereas the upper limit of detection (ULOD) was determined from 10 measurements of the dimeric selection peptide calculated as the mean+3× standard deviation. The inter- and intra-assay variation was determined by 10 independent runs of five quality control (QC) samples with minimum three of these being healthy human plasma EDTA samples (Valley Biomedical, Winchester, VA, USA), with each run consisting of double determinations of the samples. […] Assay linearity was determined by calculating the percentage recovery (100%±20%) of a 1:6-fold dilution of healthy human plasma EDTA samples with a significant concentration, using the undiluted sample as reference. […] Subsequently, the percentage recovery between the control sample and the low or high interferent samples were calculated.

The target of assay [2] is T2, dimeric truncated peptide (CKAGGFAPYY×CKAGGFAPYY (SEQ ID NO: 18)) (Homo sapiens, UniProt P02461).
T2 construct: purchased Genscript, Piscataway, NJ, USA; host or cells: synthetic peptide
Described as above. The class given is binding. To be noted: NBH-242 as capture and detection antibody, FIG. 3. As to the method: as §1, §2

Assay [3] addresses T3, Rat dimeric peptide (CKSGGFSPYYG×CKSGGFSPYYG) (Rattus norvegicus, UniProt P13941).
T3 construct: purchased Genscript, Piscataway, NJ, USA; host or cells: synthetic peptide
The description is as above. The assay is classed as binding. To be noted: NBH-242 as capture and detection antibody, FIG. 3. As to the method:
as §1, §2

Assay [4] addresses T4, Selection peptide KAGGFAPYYG (human).
T4 construct: Synthetic monomeric peptide (Genscript); also called human selection peptide
T4 peptide: KAGGFAPYYG
The experiment in a line: indirect competitive ELISA, selection peptide competing with coated biotin-KAGGFAPYYG

The target in assay [5] is T5, Rat dimeric peptide CKSGGFSPYYG x CKSGGFSPYYG (rat, also: homodimer cross-linked by disulphide N-terminal to antibody binding site, disulfide at 1, other end not in the chain).
T5 construct: also called dimeric rat peptide; rat selection peptide
T5 peptide: CKSGGFSPYYG
The experiment in a line: direct sandwich ELISA, NBH-242 as capture and detection antibody. The method, then:
(§3) Unbound primary antibody and sample was discarded, and the wells were washed with washing buffer. Subsequently, 100 μL chemiluminescence substrate was added to the wells, plates were incubated for 3 minutes at 20° C. in the dark rotating 300 rpm. Finally, the luminescence emitted was quantified with an ELISA reader (VersaMAX; Molecular Devices, Wokingham Berkshire, UK) set to measure the luminescence at 450 nm and 650 nm. […] Unknown sample measurements were interpolated with the standard curve to obtain the concentration (ng/mL) of the CTX-III fragment.
(§4) By plotting the calculated percentage recovery, the specificity of the antibodies in the direct sandwich ELISA towards the dimeric peptides was tested.

For assay [6], the target named is T6, Dimeric elongated peptide CKAGGFAPYYGD x CKAGGFAPYYGD (also: homodimer linked by Cys1 disulphide, disulfide at 1, other end not in the chain).
T6 peptide: CKAGGFAPYYGD
The description is as above. The method, then: as §3, §4

For assay [7], the target named is T7, Dimeric selection peptide CKAGGFAPYYG x CKAGGFAPYYG (human, also: homodimer linked by Cys1 disulphide, disulfide at 1, other end not in the chain).
T7 construct: Synthetic dimer of two identical strands; standard of the sandwich ELISA; also called dimeric human selection peptide
T7 peptide: CKAGGFAPYYG
The assay is described as above. As to the method: as §3, §4

Assay [8] deals with T8, Dimeric truncated peptide CKAGGFAPYY x CKAGGFAPYY (also: homodimer linked by Cys1 disulphide, disulfide at 1, other end not in the chain).
T8 peptide: CKAGGFAPYY
Described as above. As to the method: as §3, §4

Assay [9] has as its target T9, Elongated peptide KAGGFAPYYGD
T9 peptide: KAGGFAPYYGD
The experiment in a line: indirect competitive ELISA (final inhibition).

Assay [10] concerns the target T10, Truncated peptide KAGGFAPYY
T10 peptide: KAGGFAPYY
Description: indirect competitive ELISA (final inhibition).

B1: NBH-242: neo-epitope specific antibody directed towards the C-terminal neo-epitope in the C-terminal telopeptide of type III collagen (CT-III), …-COOH (antibody)
heavy: QVQLQQSGAELVRPGVSVKISCKGSGHTFTDHGMHWVKQSQAKSLEWIGVISTYYGDATYNQKFKGKATMTVDKSSSTAYMELARLTSEDSAIYYCARSMGGNYVGTGFAYWGQGTLVTVSAAKTTAPSVYPLAPVCGDTTGSSVTLGCLVKGYFPEPVTLTWNSGSLSSGVHTFPAVLQSDLYTLSSSVTVTSSTWPSQSITCNVAHPASSTKVDKKIEPRGPTIKPCPPCKCPAPNLLGGPSVFIFPPKIKDVLMISLSPIVTCVVVDVSEDDPDVQISWFVNNVEVHTAQTQTHREDYNSTLRVVSALPIQHQDWMSGKEFKCKVNNKDLPAPIERTISKPKGSVRAPQVYVLPPPEEEMTKKQVTLTCMVTDFMPEDIYVEWTNNGKTELNYKNTEPVLDSDGSYFMYSKLRVEKKNWVERNSYSCSVVHEGLHNHHTTKSFSRTPGK
light: DIVMTQAAPSVPVTPGESVSISCRSSKSLLHSNGNTYLYWFLQRPGQSPQLLIYRMSNLASGVPDRFSGSGSGTAFTLRISRVEAEDVGVYYCMQHLEFPLTFGAGTKLELKRADAAPTVSIFPPSSEQLTSGGASVVCFLNNFYPKDINVKWKIDGSERQNGVLNSWTDQDSKDSTYSMSSTLTLTKDEYERHNSYTCEATHKTSTSPIVKSFNRNE
Take B1: in [1], the “reactivity towards the dimeric elongated peptide” value is reported as “no reactivity”. Besides, the “reactivity towards the dimeric truncated peptide” value in [2] is recorded as “no reactivity”. The “reactivity towards the dimeric rat peptide” value in [3] was “no reactivity”.

B2: monoclonal antibody NBH-242 (antibody, mouse IgG2a, kappa, V domains shown)
VH: QVQLQQSGAELVRPGVSVKISCKGSGHTFTDHGMHWVKQSQAKSLEWIGVISTYYGDATYNQKFKGKATMTVDKSSSTAYMELARLTSEDSAIYYCARSMGGNYVGTGFAYWGQGTLVTVSA
VL: DIVMTQAAPSVPVTPGESVSISCRSSKSLLHSNGNTYLYWFLQRPGQSPQLLIYRMSNLASGVPDRFSGSGSGTAFTLRISRVEAEDVGVYYCMQHLEFPLTFGAGTKLELKR
notes: In the sandwich ELISA the antibody was biotinylated (capture) and HRP-labelled (detection); also called monoclonal NBH-242 antibody; capture antibody
Regarding B2, the binding result is given as “binds” in assay [4]; “no binding” in assay [5]; “no binding” in assay [6]; “binds” in assay [7]; “no binding” in assay [8]; “no binding” in assay [9]. Also, the binding result in [10] is listed as “no binding”.
